The target of this experiment is ClpP1/P2 heptameric ring 3ClpP1 + 4ClpP2 (Synechococcus elongatus) (UniProt P54415). As to the kind of experiment: native MS; nano-ESI Q-ToF, 200 mM ammonium acetate with 2 mM TEA (weakly denaturing).

What is called stoichiometry N is a count of units in the complex or per binding partner. For “ClpP1/P2 heptameric ring 3ClpP1 + 4ClpP2 (from UniProt P54415 1-197; O34125 1-240) (complex)”, the stoichiometry N amounted to 2.

The record behind these values is publication PMC4673316.
